Here are results for one molecule from PMC10957913, “GAS41 modulates ferroptosis by anchoring NRF2 on chromatin” (Nature Communications, 2024).

In the experiment the target is T1, Flag-tagged GAS41, purified (human, UniProt O95619 1-227).
T1 construct: GAS41, human, full-length cDNA amplified from A549 cDNA; also called purified GAS41 proteins
As to the kind of experiment: pull-down; GST or GST-NRF2 fragments on GST Bind Resin incubated with purified GAS41 in BC200 buffer for 4 h at 4 °C, washed six times with BC200; western blot. As to conditions: both partners purified. (In general: A western blot detects proteins with antibodies after separation by electrophoresis.)

T1 sequence (O95619 whole entry): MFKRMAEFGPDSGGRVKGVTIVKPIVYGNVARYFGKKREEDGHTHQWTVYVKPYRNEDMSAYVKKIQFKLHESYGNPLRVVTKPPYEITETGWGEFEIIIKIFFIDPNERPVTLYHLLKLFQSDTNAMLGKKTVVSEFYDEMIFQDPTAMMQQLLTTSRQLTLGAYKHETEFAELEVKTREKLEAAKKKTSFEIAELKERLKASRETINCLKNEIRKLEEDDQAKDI

B1: GST-NRF2-CT (Neh1 and Neh3 domains of NRF2, AA. 434-605) (domain or fragment, UniProt Q16236 434-605, looked up)
chain: PGHRKTPFTKDKHSSRLEAHLTRDELRAKALHIPFPVEKIINLPVVDFNEMMSKEQFNEAQLALIRDIRRRGKNKVAAQNCRKRKLENIVELEQDLDHLKDEKEKLLKEKGENDKSLHLLKKQLSTLYLEVFSMLRDEDGKPYSPSEYSLQQTRDGNVFLVPKSKKPDVKKN
notes: NRF2, Neh1 and Neh3 domains, amino acids 434-605; That the 434-605 fragment is the construct called GST-NRF2-CT in the methods is inferred
Turning to B1, the binding result is reported as “binds”.
